Measured values: article PMC11773478

B1: EPHA1: N414A (protein)
parent chain: MERRWPLGLGLVLLLCAPLPPGARAKEVTLMDTSKAQGELGWLLDPPKDGWSEQQQILNGTPLYMYQDCPMQGRRDTDHWLRSNWIYRGEEASRVHVELQFTVRDCKSFPGGAGPLGCKETFNLLYMESDQDVGIQLRRPLFQKVTTVAADQSFTIRDLVSGSVKLNVERCSLGRLTRRGLYLAFHNPGACVALVSVRVFYQRCPETLNGLAQFPDTLPGPAGLVEVAGTCLPHARASPRPSGAPRMHCSPDGEWLVPVGRCHCEPGYEEGGSGEACVACPSGSYRMDMDTPHCLTCPQQSTAESEGATICTCESGHYRAPGEGPQVACTGPPSAPRNLSFSASGTQLSLRWEPPADTGGRQDVRYSVRCSQCQGTAQDGGPCQPCGVGVHFSPGARGLTTPAVHVNGLEPYANYTFNVEAQNGVSGLGSSGHASTSVSISMGHAESLSGLSLRLVKKEPRQLELTWAGSRPRSPGANLTYELHVLNQDEERYQMVLEPRVLLTELQPDTTYIVRVRMLTPLGPGPFSPDHEFRTSPPVSRGLTGGEIVAVIFGLLLGAALLLGILVFRSRRAQRQRQQRQRDRATDVDREDKLWLKPYVDLQAYEDPAQGALDFTRELDPAWLMVDTVIGEGEFGEVYRGTLRLPSQDCKTVAIKTLKDTSPGGQWWNFLREATIMGQFSHPHILHLEGVVTKRKPIMIITEFMENGALDAFLREREDQLVPGQLVAMLQGIASGMNYLSNHNYVHRDLAARNILVNQNLCCKVSDFGLTRLLDDFDGTYETQGGKIPIRWTAPEAIAHRIFTTASDVWSFGIVMWEVLSFGDKPYGEMSNQEVMKSIEDGYRLPPPVDCPAPLYELMKNCWAYDRARRPHFQKLQAHLEQLLANPHSLRTIANFDPRMTLRLPSLSGSDGIPYRTVSEWLESIRMKRYILHFHSAGLDTMECVLELTAEDLTQMGITLPGHQKRILCSIQGFKD
B2: EPHA1: N478A (protein)
parent chain: B1 parent chain
B3: EPHA1: N414A-N478A (protein)
parent chain: B1 parent chain

Experiment: cell surface biotinylation, streptavidin pull-down, EPHA1 immunoblot
Conditions: glycan lost; control: wild type

Protein | localisation_or_trafficking
B1 | decreases
B2 | decreases
B3 | decreases
